Results as given in paper PMC7570871, “Evaluation of a New ^177Lu-Labeled Somatostatin Analog for the Treatment of Tumors Expressing Somatostatin Receptor Subtypes 2 and 5” (Molecules, 2020).

Format: physicochemical
Conditions: pH 7.4
Description: To a pre-saturated mixture of 500 µL 1-octanol and 500 µL of phosphate-buffered saline (PBS) (pH 7.4), 10 µL of 1 µM of the ^177Lu-labeled conjugates were added. The solution was vortexed for 1 h to reach the equilibrium and then centrifuged (3000 rpm) for 10 min. From each phase, 100 µL of the aliquot was removed and measured in a γ-counter. Each measurement was repeated three times. Care was taken to avoid cross-contamination between the phases. The partition coefficient was calculated as the average of the logarithmic values (n = 3) of the ratio between the radioactivity in the organic and the PBS phase.

Molecule `C[C@@H](O)[C@@H]1NC(=O)[C@H](CCCCN)NC(=O)[C@@H](Cc2c[nH]c3ccccc23)NC(=O)[C@H](Cc2cccc3ccccc23)NC(=O)[C@@H](NC(=O)[C@@H](Cc2ccccc2)NC(=O)CN2CCN(CC(=O)O)CCN(CC(=O)O)CCN(CC(=O)O)CC2)CSSC[C@@H](C(=O)N[C@H](CO)[C@@H](C)O)NC1=O` [[^177Lu]Lu-DOTA-NOC, metal not drawn, reference compound] has a logD of -1.6 ± 0.1.
